The values that follow come from publication PMC8163507, “PHAROH lncRNA regulates Myc translation in hepatocellular carcinoma via sequestering TIAR”.

The target in series [1] is T1, TIAR (nucleolysin TIAR, TIAL-1) (human, UniProt Q01085 1-375).
T1 sequence: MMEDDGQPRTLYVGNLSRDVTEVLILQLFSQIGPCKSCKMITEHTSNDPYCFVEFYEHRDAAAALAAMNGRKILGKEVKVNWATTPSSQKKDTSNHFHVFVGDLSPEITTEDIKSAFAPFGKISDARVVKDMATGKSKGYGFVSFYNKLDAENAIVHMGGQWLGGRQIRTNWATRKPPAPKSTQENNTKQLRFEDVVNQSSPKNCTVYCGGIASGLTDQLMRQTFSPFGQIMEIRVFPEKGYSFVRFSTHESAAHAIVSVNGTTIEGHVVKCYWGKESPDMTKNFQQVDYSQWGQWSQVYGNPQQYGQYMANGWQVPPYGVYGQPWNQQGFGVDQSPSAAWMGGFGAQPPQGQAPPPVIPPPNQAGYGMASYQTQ
As to the kind of experiment: EMSA; prefers one copy; three only at saturating TIAR; EMSA: ~2 fmol probe in 20 ul, 10 mM HEPES pH 7.3, 20 mM KCl, 1 mM MgCl2 (printed Mg2Cl2), 1 mM DTT, 30 ng/ul BSA, 0.01% NP-40, 5% glycerol, room temperature 30. The conditions noted are these: protein: commercial; label: 3' biotin; single strand; sites predicted largely in loop.

Series [2] deals with T1, TIAR (nucleolysin TIAR, TIAL-1). As to the kind of experiment: EMSA; densitometry of free probe; sequential shifts, prefers two and four copies; EMSA: ~2 fmol probe in 20 ul, 10 mM HEPES pH 7.3, 20 mM KCl, 1 mM MgCl2 (printed Mg2Cl2), 1 mM DTT, 30 ng/ul BSA, 0.01% NP-40, 5% glycerol, room temperature 30. The conditions noted are these: protein: commercial; hairpin (predicted).

B1: Myc 3' UTR 53-nt fragment (ssRNA)
RNA: GCUUCCCAUCUUUUUUCUUUUUCCUUUUAACAGAUUUGUAUUUAAUUGUUUUU
With B1, the binding result in series [1] is listed as “binds”.

B2: PHAROH 71-nt hairpin (WT) (structured_RNA)
RNA: GAGAGGAUGCCACUGUUUUGAACUAUUUUGAAGGCACAGCCACCAGAGCUUUAGGGACAGGGUAUUUUAUC
Usually Kd stands for a measure of binding affinity in units of concentration. On to B2, for which the Kd in series [2] is roughly 2 nM.
